Results reported in patent US20260132218A1 (A AND G PHARMACEUTICAL, published 2026).

Experiments:
[1] = biological target: T1, human recombinant His-tagged HER2 extracellular domain (human, UniProt P04626 23-652); experiment: competition EIA on coated HER2, competitor trastuzumab-biotin; given as ED50
T1 construct: extracellular domain; also called HER2-ECD; HER-ECD
Protocol: (§1) Method: 96 well high binding EIA plates were coated with 10 ng of HER2 protein overnight at 4 C. […] After washing, colorimetric substrate 3,3′,5,5′-tetramethylbenzidine (TMB) was added and absorbance at 620 nm was determined after 10 minutes.

HER2 on SKBR3 cells = HER2 on SKBR3 cells (human, UniProt P04626 23-1255); experiment: cell-based or functional assay
[2] = biological target: T1, human recombinant His-tagged HER2 …; experiment: blocking ELISA (competition EIA): HER2 protein coated on the plate, pre-incubated with the antibody, then competitor anti-HER2 TRAST-biotin, streptavidin-HRP; signal as % of h.IgG
Protocol: as §1

Row | Binder | IC50 [1] [µg/mL] | Migration assay, at 50 ug/ml (inhibition of migration of SKBR3 cells) (HER2 on SKBR3 cells) [%] | Internalization: Fluorescent Units (HER2 on SKBR3 cells) [Fluorescent Units] | IC50 (read off the curve) [2] [µg/mL] | Killing assay at 0.3 ug/ml Ab (2 nM), DM1 (6 nM), 72 hr (HER2 on SKBR3 cells) [%]
1 | 2A2 (antibody, IgG2a, V domains shown, also called AGRD017-2A2; fully human 2A2 antibody) VH: EVQLVESGGGLVQPGRSLRLSCAASGFTFDDYAMHWVRQAPGKGLEWVSGISWNGGTLGYADSVKGRFTISRDNAKNSLYLQMNSLRAEDTALYYCAKDTGSYSHWYFDLWGRGTLVTVSS VL: EIVMTQSPATLSVSPGERATLSCRASQSVRSNLAWYQQKPGQAPRLLIYGASTRATGIPARFSGSGSGTEFTLTISSLHSEDFAVYYCQQYNNWPTFGQGTKVEIK | 0.09 | 38 |  |  | 
2 | 3G7 (antibody, IgG1, V domains shown, also called AGRD017-3G7; fully human 3G7 antibody) VH: EVQLVESGGGLVQPGRSLRLSCAASGFTFDDYAMHWVRQAPGKGLEWVSGVSWNGGTMGYAGSVKGRFTISRDNAKNSLYLQMNSLRAEDTALYYCAKDTGSYSHWYFDLWGRGTLVTVSS VL: EIVMTQSPATLSVSPGERATLSCRASQSVRSNLAWYQQKPGQAPRLLIYGASTRATGIPGRFSGSGSGTEFILTISSLQSEDFAVYYCQQYNNWPTFGQGTKVEIK | 0.06 | 24 |  |  | 
3 | 8C1 (antibody, IgG2a, V domains shown, also called AGRD017-8C1; fully human 8C1 antibody) VH: EVQLVESGGGLVQPGRSLRLSCTASGFTFDDYAMHWVRQAPGKGLEWVSGISWNGGTLGYADSVKGRFTISRDNAKNSLYLQMNSLRAEDTALYYCAKDTGSYSHWYFDLWGRGTLVTVSS VL: EIVMTQSPATLSVSPGERATLSCRASQSVRSNLAWYQQKPGQAPRLLIYGASTRATGIPARFSGSGSGTEFTLTISSLHSEDFAVYYCQQYNNWPTFGQGTKVEIK | 0.1 | 32 |  |  | 
4 | 2D7 (antibody, IgG1, V domains shown, also called AGRD017-2D7; fully human 2D7 antibody) VH: EVQLVESGGGLVQPGRSLRLSCAASGFTFDDYAMHWVRQAPGKGLEWVSGISWNSGTMGYAGSVKGRFTISRDNAKNSLYLQMNSLRAEDTALYYCAKDTGSYSHWYFDLWGRGTLVTVSS VL: not shown |  | 59 |  | ~0.1 | 50

The next lines start with results.

Row | IC50 [1] [µg/mL] | Migration assay, at 50 ug/ml (inhibition of migration of SKBR3 cells) (HER2 on SKBR3 cells) [%] | Internalization: Fluorescent Units (HER2 on SKBR3 cells) [Fluorescent Units] | IC50 (read off the curve) [2] [µg/mL] | Binder | Killing assay at 0.3 ug/ml Ab (2 nM), DM1 (6 nM), 72 hr (HER2 on SKBR3 cells) [%]
5 | 0.04 | 45 | 9000 |  | 12E3 (antibody, IgG1, V domains shown, also called AGRD017-12E3; fully human 12E3 antibody) VH: EVQLVGSGGGLVQPGRSLRLSCAASGFTFDDYAMHWVRQAPGKGLEWVSGISWNGGTLGYAGSVKGRFTISRDNAKNSLYLQMNSLRAEDTALYYCAKDTGSYSHWYFDLWGRGTLVTVSS VL: EIVMTQSPATLSVSPGERATLSCRASQSVRSNLAWYQQKPGQAPRLLIYGASTRATGIPARCSGSGSGTEFTLTISSLQSEDFAVYYCQQYNNWPTFGQGTKVEIK | 
6 | 0.06 | 32 |  |  | 11D7 (antibody, V domains shown, Hybridoma antibody from TC-mAb mice; also called AGRD017-11D7; fully human 11D7 antibody) VH: EVQLVESGGGLVQPGRSLRLSCAASGFTFDDYAMHWVRQAPGKGLEWVSGIAWNGGILGYADSVKGRFTISRDNAKNSLYLQMNSLRAEDTALYYCAKDTGSYSHWYFDLWGRGTLVTVSS VL: EIVMTQSPATLSVSPGERATLSCRASQSVRSNLAWYQQKPGQAPRLLIYGASTRATGIPARFSGSGSGTEFTLTISSLQSEDFAVYCCQQYNNWPTFGQGTKVEIK | 
